Among the data in PMC4549301 (2015) are screen value (log2 fold change) values, retold here.

To fix the notation:
B1: GST–HCF-1rep1, wild type (HCF-1 residues 867–1071) [human] / Recombinant human O-linked β-N-acetylglucosamine transferase (OGT), wild type [human] (parent)
chain 1: PAVTTLVVKGTTGVTTLGTVTGTVSTSLAGAGGHSTSASLATPITTLGTIATLSSQVINPTAITVSAAQTTLTAAGGLTTPTITMQPVSQPTQVTLITAPSGVEAQPVHDLPVSILASPTTEQPTATVTIADSGQGDVQPGTVTLVCSNPPCETHETGTTNTATTTVVANLGGHPQPTQVQFVCDRQEAAASLVTSTVGQQNGSV
chain 2: MASSVGNVADSTGLAELAHREYQAGDFEAAERHCMQLWRQEPDNTGVLLLLSSIHFQCRRLDRSAHFSTLAIKQNPLLAEAYSNLGNVYKERGQLQEAIEHYRHALRLKPDFIDGYINLAAALVAAGDMEGAVQAYVSALQYNPDLYCVRSDLGNLLKALGRLEEAKACYLKAIETQPNFAVAWSNLGCVFNAQGEIWLAIHHFEKAVTLDPNFLDAYINLGNVLKEARIFDRAVAAYLRALSLSPNHAVVHGNLACVYYEQGLIDLAIDTYRRAIELQPHFPDAYCNLANALKEKGSVAEAEDCYNTALRLCPTHADSLNNLANIKREQGNIEEAVRLYRKALEVFPEFAAAHSNLASVLQQQGKLQEALMHYKEAIRISPTFADAYSNMGNTLKEMQDVQGALQCYTRAIQINPAFADAHSNLASIHKDSGNIPEAIASYRTALKLKPDFPDAYCNLAHCLQIVCDWTDYDERMKKLVSIVADQLEKNRLPSVHPHHSMLYPLSHGFRKAIAERHGNLCLDKINVLHKPPYEHPKDLKLSDGRLRVGYVSSDFGNHPTSHLMQSIPGMHNPDKFEVFCYALSPDDGTNFRVKVMAEANHFIDLSQIPCNGKAADRIHQDGIHILVNMNGYTKGARNELFALRPAPIQAMWLGYPGTSGALFMDYIITDQETSPAEVAEQYSEKLAYMPHTFFIGDHANMFPHLKKKAVIDFKSNGHIYDNRIVLNGIDLKAFLDSLPDVKIVKMKCPDGGDNADSSNTALNMPVIPMNTIAEAVIEMINRGQIQITINGFSISNGLATTQINNKAATGEEVPRTIIVTTRSQYGLPEDAIVYCNFNQLYKIDPSTLQMWANILKRVPNSVLWLLRFPAVGEPNIQQYAQNMGLPQNRIIFSPVAPKEEHVRRGQLADVCLDTPLCNGHTTGMDVLWAGTPMVTMPGETLASRVAASQLTCLGCLELIAKNRQEYEDIAVKLGTDLEYLKKVRGKVWKQRISSPLFNTKQYTMELERLYLQMWEHYAAGNKPDHMIKPVEVTESA

The variants in the test derive from B1. Nature of the test: in vitro HCF-1rep1-OGT binding assay (OGT pull-down, quantified immunoblot). The conditions noted are these: with Recombinant human O-linked β-N-acetylglucosamine transferase (OGT), in the presence of UDP-GlcNAc, read off a plot. (In general: A western blot detects proteins with antibodies after separation by electrophoresis.)
On to chain 1 E153A, for which the screen value (log2 fold change) worked out at 0.8.
